Laboratory results published in patent US20230002481A1 (Chugai, published 2023).
Each block holds one binder with its values, some of them ahead of it.

Legend:
[1] = target: T1, recombinant cyno C1r2s2 His/Flag tetramer (cynomolgus monkey, limits assumed); test: SPR (Biacore), antibody captured on ProA/G, antigen as analyte, 37 C, pH5.8, 1.2 mM CaCl2; pH 5.8
T1 construct: Heterotetramer of two C1r-His and two C1s-Flag chains, co-expressed in FreeStyle293-F cells; also called cyno C1r2s2s
T1 chain 1: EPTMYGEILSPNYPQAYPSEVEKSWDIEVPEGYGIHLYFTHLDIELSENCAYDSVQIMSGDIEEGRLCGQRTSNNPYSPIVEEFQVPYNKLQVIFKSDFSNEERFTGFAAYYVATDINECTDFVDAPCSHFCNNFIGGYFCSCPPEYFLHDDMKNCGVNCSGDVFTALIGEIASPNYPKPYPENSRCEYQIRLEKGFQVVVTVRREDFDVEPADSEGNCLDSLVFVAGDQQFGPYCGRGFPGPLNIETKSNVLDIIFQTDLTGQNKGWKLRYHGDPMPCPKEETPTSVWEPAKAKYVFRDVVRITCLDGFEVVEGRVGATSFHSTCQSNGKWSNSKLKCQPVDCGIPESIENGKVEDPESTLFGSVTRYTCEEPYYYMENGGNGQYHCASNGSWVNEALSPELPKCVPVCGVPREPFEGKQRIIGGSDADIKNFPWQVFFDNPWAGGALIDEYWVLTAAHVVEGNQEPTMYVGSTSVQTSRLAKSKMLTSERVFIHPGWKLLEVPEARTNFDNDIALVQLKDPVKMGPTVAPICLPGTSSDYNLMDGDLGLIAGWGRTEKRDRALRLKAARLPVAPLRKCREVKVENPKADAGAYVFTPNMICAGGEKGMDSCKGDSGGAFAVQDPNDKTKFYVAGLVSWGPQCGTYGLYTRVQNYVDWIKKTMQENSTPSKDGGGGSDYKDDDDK
T1 chain 2: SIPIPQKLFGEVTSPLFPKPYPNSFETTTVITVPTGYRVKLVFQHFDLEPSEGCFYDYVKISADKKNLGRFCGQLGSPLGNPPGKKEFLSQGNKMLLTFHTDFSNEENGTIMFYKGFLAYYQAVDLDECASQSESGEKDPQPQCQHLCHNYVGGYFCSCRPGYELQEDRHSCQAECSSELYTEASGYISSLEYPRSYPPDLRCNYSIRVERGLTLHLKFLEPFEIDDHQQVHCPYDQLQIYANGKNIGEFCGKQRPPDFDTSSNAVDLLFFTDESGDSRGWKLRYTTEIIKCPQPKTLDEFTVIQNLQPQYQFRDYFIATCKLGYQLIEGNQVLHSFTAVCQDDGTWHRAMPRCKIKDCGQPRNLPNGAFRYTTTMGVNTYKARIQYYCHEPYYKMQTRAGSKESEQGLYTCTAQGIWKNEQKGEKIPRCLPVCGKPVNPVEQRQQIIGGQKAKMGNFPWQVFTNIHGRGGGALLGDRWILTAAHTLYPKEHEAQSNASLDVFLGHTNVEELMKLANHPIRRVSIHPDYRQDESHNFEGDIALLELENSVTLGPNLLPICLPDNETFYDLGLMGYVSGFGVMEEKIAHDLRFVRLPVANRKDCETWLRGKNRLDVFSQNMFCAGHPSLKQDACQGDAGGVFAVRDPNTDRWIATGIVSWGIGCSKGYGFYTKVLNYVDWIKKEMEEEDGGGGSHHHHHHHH
Experimental: (§1) The kinetic parameters of anti-C1s antibodies against recombinant human C1s (as described in PCT/JP2018/042054), human C1r2s2, and cyno C1r2s2 His/Flag (also referred as cyno C1r2s2 in the Table and Figures) were assessed at pH7.4 and pH5.8, at 37 degrees C. using BIACORE (registered trademark) T200 instrument (GE Healthcare) or BIACORE 4000 (GE Healthcare). ProAG (Pierce) was immobilized onto a CM4 sensorchip using amine coupling kit (GE Healthcare) according to the recommended settings by GE Healthcare. Antibodies and analytes were diluted into the respective running buffers, ACES pH7.4 and pH5.8 (20 mM ACES, 150 mM NaCl, 1.2 mM CaCl₂, 1 mg/ml BSA, 1 mg/ml CMD, 0.05% Tween 20, 0.005 w/v % NaN₃). Each antibody was captured onto the sensor surface by ProA/G. Antibody capture levels were typically 100-200 resonance units (RU). Then, recombinant C1s was injected at concentrations of 25 and 50 nM followed by dissociation at pH7.4 and pH5.8. The surface was regenerated using 10 mM Glycine-HCl, pH1.5. Kinetic parameters at neutral pH conditions and acidic conditions were determined by fitting the sensorgrams with 1:1 binding model using BIACORE (registered trademark) T200 Evaluation software, version 2.0 (GE Healthcare) or BIACORE 4000 Evaluation software. The dissociation rate at pH5.8 (after dissociation at pH7.4, indicated as pH5.8* in TABLE 2) was determined by processing and fitting data using Scrubber 2.0 (BioLogic Software) curve fitting software. The association rate (ka), dissociation rate (kd), binding affinity (KD) at pH7.4 and pH5.8 condition, and dissociation rate (kd) at pH5.8* condition of the antibodies are listed in TABLE 2. Some kinetic parameters of COS0098pHv1 in acidic condition were not correctly calculated because of its weak binding response.
(§2) Also, to observe the cross-reactivity of anti-C1s antibodies against human C1r2s2 and cyno C1r2s2 (cyno C1r2s2 His/Flag), BIACORE (registered trademark) kinetics analysis was performed.

[2] = target: T1, recombinant cyno C1r2s2 His/Flag …; test: SPR (Biacore), antibody captured on ProA/G, antigen as analyte, 37 C, pH7.4, 1.2 mM CaCl2
Experimental: as §1, §2

Kd [1]: 0.894 nM
koff [1]: 0.00105 s⁻¹
kon [1]: 1.17e+06 M⁻¹ s⁻¹
B1: COS0098bb (antibody, V domains shown)
VH: QSVEESGGRLVTPGTPLTLTCTVSGFSLTKYTVSWVRQAPGKGLEWIGIINTGGSAYYATWAKGRFTFSKTSTTVDLQITSPTTEDTATYFCARGNGDTDYTNLWGPGTLVTVSS
VL: QVLTQTPSSVSEPVGGTVTINCQASENIYSALAWYQQKPGQPPKLLIYGASNLESGVPSRFKGSGSGTQFTLTISDLECADAATYYCQQYYFTSSTFGGGTKVEIK
notes: Anti-C1s rabbit antibody, parent of COS0098pHv1; the antibody was captured by ProA/G; also called anti-C1s antibody COS0098bb

Kd [2]: 2.87 nM
koff [2]: 0.00125 s⁻¹
kon [2]: 435000 M⁻¹ s⁻¹
B2: COS0098pHv1 (antibody, V domains shown)
VH: QVQLVQSGAEVKKPGSSVKVSCKASGHTFSKYTVSWIRQPPGKGLEWIGIINTGGSAYPATWAKGRVTITADESTSTAYMELSSLRSEDTAVYYCARGAGDTDYTNLWGQGTLVTVSS
VL: DIQMTQSPSSLSASVGDRVTITCQASENIYSALAWYQQKPGQPPKLLIYGASQLESGVPSRFSGSGSGTDFTLTISSLQPEDFATYYCQQYYFTSHTFGQGTKVEIK
notes: Humanized, optimized pH-dependent variant of COS0098bb
